Assays:
Format in all cases: cell-based
[1] = system: P5 cells (vascular endothelial cell line); assay: AP-Del-1 conditioned medium added to cells, H33342 and C3-annexin V staining (Example 5); settings: conditioned medium of Cos cells with AP fusion protein, 24 hours after addition
Description: (§1) cDNA for full-length Del-1 (SEQ ID NO: 4) was integrated into an alkaline phosphatase (AP) expression vector (APtag4) and then introduced into cultured Cos cells. As a control, an AP expression vector free from the cDNA for full-length Del-1 was used. The resulting culture supernatant was measured for AP activity, normalized for AP fusion protein concentration and then added to a culture of CRL cells (human melanoma cells) or P5 cells (vascular endothelial cell line) (instead of using direct gene transfer, Cos cells were allowed to produce a recombinant protein and the resulting conditioned medium was used, because CRL and P5 were low in the efficiency of gene transfer). At 24 hours after addition, the cells were stained with H33342 and with C3-annexin V for observation.

[2] = system: CRL cells (human melanoma cells); assay: as above; settings: conditioned medium of Cos cells with AP fusion protein, 24 hours after addition
Description: as §1

[3] = system: P5 cells (vascular endothelial cell line); assay: AP-Del-1 conditioned medium added to cells, chromosomal DNA electrophoresis and silver staining (Example 6); settings: 24 hours after addition
Description: as §1, with “AP” for “alkaline phosphatase (AP)”, “addition, chromosomal DNAs were taken from” for “addition,”, “cells” for “cells were stained with H33342”, “electrophoresed on a polyacrylamide gel, followed by silver staining.” for “with C3-annexin V for observation.”

[4] = system: CRL cells (human melanoma cells); assay: as above; settings: 24 hours after addition
Description: as §1, with “AP” for “alkaline phosphatase (AP)”, “addition, chromosomal DNAs were taken from” for “addition,”, “cells” for “cells were stained with H33342”, “electrophoresed on a polyacrylamide gel, followed by silver staining.” for “with C3-annexin V for observation.”

Cos cells [5] = assay: Del-1 gene transfer into cultured Cos cells, H33342 nuclear staining, phase contrast and fluorescent microscopy (Example 1); settings: 24 hours after gene transfer of cDNA in pcDNA3
Description: cDNA for full-length Del-1 (SEQ ID NO: 4) was integrated into an expression vector, pcDNA3 (Invitrogen), and then introduced into cultured Cos cells. As a control, pcDNA3 free from the cDNA for full-length Del-1 was used. At 24 hours after gene transfer, the cells were stained with H33342 (Hoechst) for cell nuclear staining and observed under a phase contrast microscope (transmission image) and a fluorescent microscope (H33342).

Cos cells [6] = assay: Del-1 gene transfer into cultured Cos cells, H33342 and C3-annexin V staining (Example 3); settings: 24 hours after gene transfer
Description: cDNA for full-length Del-1 (SEQ ID NO: 4) was integrated into an expression vector and then introduced into cultured Cos cells. At 24 hours after gene transfer, the cells were stained with H33342 and with C3-annexin V (annexin V conjugated with the fluorescent dye C3) and then observed under a fluorescent microscope.
It should be noted that annexin V is capable of binding to phosphatidylserine, a component of cell membranes, while phosphatidylserine is known to leak (to be localized) outside of the cell membrane when the cells undergo apoptosis.

Cos cells [7] = assay: Del-1 gene transfer into cultured Cos cells, chromosomal DNA electrophoresis and silver staining (Example 2); settings: Cos cells forced to express Del-1 (pcDNA3)
From the text: cDNA for full-length Del-1 (SEQ ID NO: 4) was integrated into an expression vector, pcDNA3 (Invitrogen), and then introduced into cultured Cos cells. As a control, pcDNA3 free from the cDNA for full-length Del-1 was used. For normalization of the gene transfer rate, DNA carrying the LacZ gene was also introduced simultaneously. The results obtained are shown in FIG. 2 (left and right panels).
Left panel: Chromosomal DNAs were taken from the cells and electrophoresed on a polyacrylamide gel, followed by silver staining.

Cos cells [8] = assay: LDH activity in supernatant of Cos cells transformed with cDNA for Del-1 or its parts (Example 7); settings: APtag4 vector, medium replaced 24 hours after gene transfer, measured after further one hour
From the text: cDNA for full-length Del-1 (SEQ ID NO: 4) was integrated into an AP expression vector (APtag4) and then introduced into cultured Cos cells. Likewise, cDNA for a part of Del-1 was also integrated into APtag4 and then introduced into cultured Cos cells. As a control, an AP expression vector free from the above cDNA for full-length Del-1 or a part thereof was used. It should be noted that the members each used as a part of Del-1 were EGF-like domains in the full-length Del-1 protein, i.e., EGF1 (E1; cDNA: SEQ ID NO: 26, amino acid sequence: SEQ ID NO: 27), EGF2 (E2; cDNA: SEQ ID NO: 28, amino acid sequence: SEQ ID NO: 29) and EGF3 (E3; cDNA: SEQ ID NO: 6, amino acid sequence: SEQ ID NO: 7), a fusion protein between discoidin I-like domains, i.e., Discoidin1 and Discoidin2 (C1C2; cDNA: SEQ ID NO: 30, amino acid sequence: SEQ ID NO: 31), an amino acid substitution (D136E) mutant of the above full-length Del-1 (Del1m; cDNA: SEQ ID NO: 32, amino acid sequence: SEQ ID NO: 33), as well as an amino acid substitution (D136E) mutant of E3, i.e., E3 D136E (E3m; cDNA: SEQ ID NO: 34, amino acid sequence: SEQ ID NO: 35). […] At 24 hours after gene transfer, the medium in each case was replaced with fresh culture medium and, after further one hour, the supernatant was measured for LDH activity. A cell lysate was prepared for each case and measured for LacZ activity. […]

Cos cells [9] = assay: eGFP-Del-1 expression vector in cultured Cos cells, H33342 staining (Example 4); settings: expressed as eGFP-Del-1 fusion protein, 24 hours after gene transfer
Description: An expression vector designed to carry cDNA encoding eGFP-Del-1 (a fusion protein between eGFP and full-length Del-1) was introduced into cultured Cos cells. At 24 hours after gene transfer, the cells were fixed and stained with H33342.
This would mean that Del-1 secreted from the cells receiving Del-1 gene transfer would also act on their adjacent cells to thereby induce apoptosis in these cells.

B1: full-length Del-1: developmentally regulated endothelial cell locus-1 protein, extracellular matrix protein, amino acid sequence SEQ ID NO: 5 (protein, listed as Mus musculus)
chain: MKHLVAAWLLVGLSLGVPQFGKGDICNPNPCENGGICLSGLADDSFSCECPEGFAGPNCSSVVEVASDEEKPTSAGPCIPNPCHNGGTCEISEAYRGDTFIGYVCKCPRGFNGIHCQHNINECEAEPCRNGGICTDLVANYSCECPGEFMGRNCQYKCSGPLGIEGGIISNQQITASSTHRALFGLRKWYPYYARLNKKGLINAWTAAENDRWPWIQINLQRKMRVTGVITQGAKRIGSPEYIKSYKIAYSNDGKTWAMYKVKGTNEEMVFRGNVDNNTPYANSFTPPIKAQYVRLYPQICRRHCTLRMELLGCELSGCSEPLGMKSGHIQDYQITASSVFRTLNMDMFTWEPRKARLDKQGKVNAWTSGHNDQSQWLQVDLLVPTKVTGIITQGAKDFGHVQFVGSYKLAYSNDGEHWMVHQDEKQRKDKVFQGNFDNDTHRKNVIDPPIYARFIRILPWSWYGRITLRSELLGCAEEE
For B1, the “apoptosis by H33342 and C3-annexin V staining” value [1] was “these cells underwent apoptosis”, the “apoptosis by H33342 and C3-annexin V staining” value [2] was “these cells underwent apoptosis” and the “DNA ladder pattern indicative of apoptosis” value (“DNA ladder pattern indicative” for short) [3] was “ladder pattern indicative of apoptosis was observed”. The “DNA ladder pattern indicative” value [4] was “ladder pattern indicative of apoptosis was observed”, the “chromosome aggregation (H33342 nuclear staining)” value (Cos cells [5]) was “chromosomes were aggregated” and the “apoptosis by H33342 and C3-annexin V staining” value (Cos cells [6]) was “these cells underwent apoptosis”. The “DNA ladder pattern indicative” value (Cos cells [7]) was “ladder pattern indicative of apoptosis was observed”, the “increase in LDH activity of supernatant, normalized by LacZ activity” value (Cos cells [8]) was “increase in LDH activity” and the “apoptosis (chromosomal aggregation, H33342) in cells expressing the fusion protein” value (Cos cells [9]) was “found to undergo apoptosis”.

Reference: patent publication US20120245099A1, “APOPTOSIS INDUCER” (NIHON UNIVERSITY, priority 2009, published 2012)
